From patent US10174336B2, “Herbicide-tolerant plants” (BASF Agrochemical Products B.V., priority 2010, dated 2019)

Experiments:
OsICYP81A6 = experiment: Yeast expression system, saflufenacil metabolism (LC/MS/MS); assay type: in vitro ADME, rice
Text: Rice cytochrome P450 81A6 was cloned into pESC-His yeast expression vector (Stratagene) using BamHI and SalI. Constructs were transformed into YPH500 yeast strain (Stratagene) using a Yeast Maker Transformation System from Clontech. Positive clones were selected on SD-agar plates (0.7% yeast nitrogen base without amino acids, 2% glucose, 0.13% amino acid drop-out without histidine; plates solidified with 2% agar). Bioconversion of substrates was directly assayed in yeast cells expressing the respective cytochrome P450 gene. Cells were induced in SG-His medium (same composition as SD but with galactose instead of glucose) for 18-24 h (Pompon et al., Methods in Enzymology 272:51-64 (1996); Urban et al., Eur. J. Biochem. 222:[…] (1994)). Afterwards, the BAS800H substrate was added and samples were incubated for an additional 24 h. Samples were analyzed by LC/MS/MS.

Sb01g007420.1 = experiment: as above; assay type: in vitro ADME, sorghum; conditions: yeast cells expressing Sb01g007420.1, 24 h incubation
[1] = test system: maize, rice, and soybean transgenic systems; experiment: Saflufenacil tolerance in transgenic plant systems (FIG. 3 legend); assay type: in vivo; conditions: in one or more transgenic plant systems
transgenic maize plants = experiment: Maize whole plant saflufenacil spray test (T0 and T1); assay type: in vivo; conditions: 240 g ai/ha saflufenacil + 1% MSO at 2-4 leaf stage; rated 7 and 14 days after application
Method: Immature Embryo Transformation: Immature embryos were transformed according to the procedure outlined in WO2006/136596 to Peng et al. The exception was that a proportion of the embryos—25 in most cases—were placed on media containing saflufenacil and kept in the light for direct selection. The remaining embryos in each experiment were selected on Pursuit as described. Plants were tested utilizing Taqman analysis with the target being the nos terminator which is present in all constructs. Healthy looking plants were sent to the greenhouse for hardening out and subsequent spray testing. As with the BMS cells, RCB958 was utilized as a control both for transformation, saflufenacil selection, and for spray testing.
A total of 82 transgenic maize plants (2 constructs of interest and 1 control construct) were delivered to the greenhouse in tissue culture. The plants were individually transplanted into MetroMix 360 soil in 4″ pots. […]
Sixteen vectors harboring different P450 genes were tested for the ability to increase tolerance to saflufenacil in T0 maize plants. […] Injury rating was evaluated 7 and 14 days after application. FIG. 5 indicates the number of plants from each segregating event that were evaluated and scored for herbicidal injury.

T0 soybean cuttings = experiment: Soybean T0 cuttings saflufenacil spray test; assay type: in vivo, Soybean cv Williams 82; conditions: 0, 25, or 50 g ai/ha saflufenacil + 1% MSO; evaluated 7 days after treatment
Method: Soybean cv Williams 82 was transformed as previously described by Siminszky et al., Phytochem Rev. 5:445-458 (2006). After regeneration, transformants were transplanted to soil in small pots, placed in growth chambers (16 hr day/8 hr night; 25° C. day/23° C. night; 65% relative humidity; 130-150 μE m^−2 s^−1) and subsequently tested for the presence of the T-DNA via Taqman analysis. After a few weeks, healthy, transgenic positive, single copy events were transplanted to larger pots and allowed to grow in the growth chamber. An optimal shoot for cutting was about 3-4″ tall, with at least two nodes present. Each cutting was taken from the original transformant (mother plant) and dipped into rooting hormone powder (indole-3-butyric acid, IBA). The cutting was then placed in oasis wedges inside a bio-dome. The mother plant was taken to maturity in the greenhouse and harvested for seed. Wild type cuttings were also taken simultaneously to serve as negative controls. The cuttings were kept in the bio-dome for 5-7 days and then transplanted to 3″ pots and then acclimated in the growth chamber for two more days. Subsequently, the cuttings were transferred to the greenhouse, acclimated for approximately 4 days, and then subjected to spray tests containing 0, 25, and 50 g ai/ha saflufenacil plus 1% MSO. Herbicide injury evaluations were taken at 7 days after treatment.

| Molecule | conferred tolerance to saflufenacil [1] | tolerance of segregating T1 maize events (reduced injury scores vs J553 wild type) (transgenic maize plants) | level of tolerance to saflufenacil in T0 soybean cuttings (T0 soybean cuttings) | further results |
| --- | --- | --- | --- | --- |
| CC(C)N(C)S(=O)(=O)NC(=O)c1cc(-n2c(=O)cc(C(F)(F)F)n(C)c2=O)c(F)cc1Cl [BAS800H, 2-chloro-5-[3,6-dihydro-3-methyl-2,6-dioxo-4-(trifluoromethyl)-1(2H)-pyrimidinyl]-4-fluoro-N-[[methyl(1-methylethyl)amino]sulfonyl]benzamide] |  |  |  | initial content of BAS800H converted into several metabolites (OsICYP81A6; after 24 h incubation in P450-expressing yeast, enzyme not specified (OsICYP81A6 and Sb01g007420.1 named)): 10%; degradation of BAS800H (OsICYP81A6; yeast cells expressing OsICYP81A6, 24 h incubation): catalyzed degradation; degradation of BAS800H (Sb01g007420.1): catalyzed degradation |
| OsCYP72A15: rice cytochrome P450 CYP72A15 gene/polypeptide, amino acid sequence SEQ ID NO:7 (protein, listed as Oryza sativa) MLMMLGAASQWILAAAAAAAVAALLWLAVSTLEWAWWTPRRLERALRAQGIRGNRYRLFTGDVPENVRLNREARKKPLPLGCHDIIPRVLPMFSKAVEEHGKPSFTWFGPTPRVMISDPESIREVMSNKFGHYGKPKPTRLGKLLASGVVSYEGEKWAKHRRILNPAFHHEKIKRMLPVFSNCCTEMVTRWENSMSIEGMSEVDVWPEFQNLTGDVISKTAFGSSYEEGRRIFQLQAESAERIIQAFRTIFIPGYWFLPTKNNRRLREIEREVSKLLRGIIGKRERAIKNGETSNGDLLGLLVESNMRESNGKAELGMTTDEIIEECKLFYFAGMETTSVLLTWTLIVLSMHPEWQERAREEVLHHFGRTTPDYDSLSRLKIVTMILYEVLRLYPPVVFLTRRTYKEMELGGIKYPAEVTLMLPILFIHHDPDIWGKDAGEFNPGRFADGISNATKYQTSFFPFGWGPRICIGQNFALLEAKMAICTILQRFSFELSPSYIHAPFTVITLHPQHGAQIKLKKI | conferred tolerance |  |  |  |
| OsjCYP81A6: rice cytochrome P450 CYP81A6 gene/polypeptide, amino acid sequence SEQ ID NO:1 (protein, listed as Oryza sativa) MAFLGWAVDIARDSGASSSVVLTCDGYGSALYFSPWDSVPLPATASPDDGFLLPRFPDVCVQRSQFTNHLAPANGTGGGGSRTGVKEEASEVLSWPPTSKQSVRRLEVAEHWYRLYKTDNQRLSPDSQQVSVLAESHCDLASGNWKEISIHHKKMPSSTTTKTTTPSRDAWIVSARSDPFHLLLEAQAPLGIKADALSQIAAVHQSHRNTSHIRELSLAMDNAYIIAILSVAILFLLHYYLLGRGNGGAARLPPGPPAVPILGHLHLVKKPMHATMSRLAERYGPVFSLRLGSRRAVVVSSPGCARECFTEHDVTFANRPRFESQLLVSFNGAALATASYGAHWRNLRRIVAVQLLSAHRVGLMSGLIAGEVRAMVRRMYRAAAASPAGAARIQLKRRLFEVSLSVLMETIAHTKATRPETDPDTDMSVEAQEFKQVVDEIIPHIGAANLWDYLPALRWFDVFGVRRKILAAVSRRDAFLRRLIDAERRRLDDGDEGEKKSMIAVLLTLQKTEPEVYTDNMITALTANLFGAGTETTSTTSEWAMSLLLNHPDTLKKAQAEIDASVGNSRLITADDVTRLGYLQCIVRETLRLYPAAPMLLPHESSADCKVGGYNIPRGSMLLINAYAIHRDPAVWEEPEKFMPERFEDGGCDGNLLMPFGMGRRRCPGETLALRTVGLVLGTLIQCFDWERVDGVEVDMTEGGGLTIPKVVPLEAMCRPRDAMGGVLRELV |  | increased tolerance | greatest level of tolerance |  |
| OsICYP81 A: CYP450 gene/polypeptide OsICYP81A6, amino acid sequence SEQ ID NO:29 (protein, listed as Oryza sativa) MDNAYIIAILSVAILFLLHYYLLGRGNGGAARLPPGPPAVPILGHLHLVKKPMHATMSRLAERYGPVFSLRLGSRRAVVVSSPGCARECFTEHDVTFANRPRFESQLLVSFNGAALATASYGAHWRNLRRIVAVQLLSAHRVGLMSGLIAGEVRAMVRRMYRAAAASPAGAARIQLKRRLFEVSLSVLMETIAHTKATRPETDPDTDMSVEAQEFKQVVDEIIPHIGAANLWDYLPALRWFDVFGVRRKILAAVSRRDAFLRRLIDAERRRLDDGDEGEKKSMIAVLLTLQKTEPEVYTDNMITALTANLFGAGTETTSTTSEWAMSLLLNHPDTLKKAQAEIDASVGNSRLITADDVTRLGYLQCIVRETLRLYPAAPMLLPHESSADCKVGGYNIPRGSMLLINAYAIHRDPAVWEEPEKFMPERFEDGGCDGNLLMPFGMGRRRCPGETLALRTVGLVLGTLIQCFDWERVDGVEVDMTEGGGLTIPKVVPLEAMCRPRDAMGGVLRELV |  | increased tolerance |  |  |
| ZmNSF1: corn NSF1 cytochrome P450 gene/polypeptide, amino acid sequence SEQ ID NO:3 (protein, Zea mays) MDKAYIAALSAAALFLLHYLLGRRAGGEGKAKAKGSRRRLPPSPPAIPFLGHLHLVKAPFHGALARLAARHGPVFSMRLGTRRAVVVSSPDCARECFTEHDVNFANRPLFPSMRLASFDGAMLSVSSYGPYWRNLRRVAAVQLLSAHRVGCMAPAIEAQVRAMVRRMDRAAAAGGGGVARVQLKRRLFELSLSVLMETIAHTKTSRAEADADSDMSTEAHEFKQIVDELVPYIGTANRWDYLPVLRWFDVFGVRNKILDAVGRRDAFLGRLIDGERRRLDAGDESESKSMIAVLLTLQKSEPEVYTDTVITALCANLFGAGTETTSTTTEWAMSLLLNHREALKKAQAEIDAAVGTSRLVTADDVPHLTYLQCIVDETLRLHPAAPLLLPHESAADCTVGGYDVPRGTMLLVNVHAVHRDPAVWEDPDRFVPERFEGAGGKAEGRLLMPFGMGRRKCPGETLALRTVGLVLATLLQCFDWDTVDGAQVDMKASGGLTMPRAVPLEAMCRPRTAMRGVLKRL | conferred tolerance |  | greatest level of tolerance |  |
